We go through three molecules from paper PMC9404881, “Simultaneous Maturation of Single Chain Antibody Stability and Affinity by CHO Cell Display” (Bioengineering, 2022).

For experiment [1], the target named is T1, His-TNFα-GFP (Homo sapiens, UniProt P01375, biotin (conjugated for the Octet measurement only)).
T1 construct: TNFα, antigen of the anti-human TNFα scFv; The names His-TNFα-GFP and GFP-TNFα are both printed, so the side on which GFP stands is not certain; Probably the soluble form of TNFα (surmise); also called GFP-TNFα; source: E. coli containing the PET28a (+)-TNFα-GFP plasmid, purified with a Ni column
The experiment in a line: BLI; ForteBio Octet; biotinylated TNFα-GFP (20 μg/mL) fixed on streptavidin (SA) biosensors; scFv in solution, 250-8000 nM for wild type and 31.25-1000 nM for mutant; association 120 s, dissociation 180 s; KD = Koff/Kon. Conditions: both partners purified. On the technique in general: BLI is a label-free optical method that tracks binding on a fibre tip over time.

Experiment [2] deals with T1, His-TNFα-GFP. The experiment in a line: flow cytometry on cells; scFv displayed on CHO cells, labelled with TNFα-GFP and PE-conjugated anti-HA antibody for 1/2 h at 4 °C; with or without 5% BSA (antigen binding much reduced without BSA). To be noted: one partner purified.

Substitutions are numbered along the chain they refer to. Numbers in names are those of the source.

T1 sequence (P01375 whole entry): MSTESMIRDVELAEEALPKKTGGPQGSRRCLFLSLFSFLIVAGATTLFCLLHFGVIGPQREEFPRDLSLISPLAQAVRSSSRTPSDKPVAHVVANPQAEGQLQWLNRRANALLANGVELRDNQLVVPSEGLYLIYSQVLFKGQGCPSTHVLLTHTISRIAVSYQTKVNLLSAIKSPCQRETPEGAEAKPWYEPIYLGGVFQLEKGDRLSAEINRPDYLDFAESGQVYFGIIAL

B1: Anti-human TNFα wild-type scFv (soluble, His-tagged) (scFv, V domains shown)
VH: QLVQSGPELKKPGETVKISCKASGYTFTNYGMNWVKQAPGKGLKWMGWINTYTGEPTYADDFKGRFAFSLETSASTAYLQINNLKNEDSATYFCAGRRSYDYDVAMDYWGQGTSVTIS
VL: DIVLTQSPASLAVSLGQRATISCRASESVDSYGNYFMHWYQQKPGQPPKLLIYRASNLESGIPARFSGSGSGTDFTLTINPVEADDVATYYCQQSNEEPLTFGSGTKLEIK
notes: scFv from Jie Tang (Institute of Biophysics, CAS); Theoretical mass with His tag about 25 kDa; also called αTNFα; anti-TNFα WT scFv; source: 293F cells, transfected, supernatant purified on a nickel column; not shown: His6, C-terminal, kept
Usually Kd stands for the free concentration of one partner at which half of the binding sites on the other are occupied at equilibrium, for simple one-to-one binding. A low value points to a tighter complex. One may read the koff as the rate constant with which the complex falls apart. For orientation: kon means the second-order rate constant of association. Read a high kon as fast association. In the experiment with His-TNFα-GFP [1], B1 showed a Kd of 1550 nM, a koff of 0.00873 s⁻¹ and a kon of 5620 M⁻¹ s⁻¹.

B2: Anti-TNFα scFv mutant G94R (soluble, His-tagged) (scFv, V domains shown)
VH: B1 VH with G96R
VL: B1 VL
notes: position 94 of the heavy chain in the Chothia scheme, right before heavy chain CDR3; Found by AID mutagenesis and sorting on thermo-resistant CHO cells; The base change is printed as G316A; also called G316A (base); G94R scFv; source: 293F cells, transfected, supernatant purified on a nickel column; not shown: His6, C-terminal, kept
In the experiment with His-TNFα-GFP [1], B2 yielded a Kd of 9.69 nM, a koff of 0.00159 s⁻¹ and a kon of 164000 M⁻¹ s⁻¹.

B3: Anti-TNFα scFv mutant A115V displayed on CHO cells (scFv, V domains shown)
VH: B1 VH with A105V
VL: B1 VL
notes: Most enriched clone of the maturation under normal conditions (37 °C culture, 4 °C labelling); Display construct as m4; not shown: transmembrane peptide (TM), C-terminal, kept
In the case of B3, the binding result in the experiment with His-TNFα-GFP [2] is reported as “binds”.
